Measurements published in publication PMC3061437.

Target: eukaryotic elongation factor-1 A1 (eEF1A1), purified (UniProt P68104)
UniProt P68104, sequence (P68104 whole entry): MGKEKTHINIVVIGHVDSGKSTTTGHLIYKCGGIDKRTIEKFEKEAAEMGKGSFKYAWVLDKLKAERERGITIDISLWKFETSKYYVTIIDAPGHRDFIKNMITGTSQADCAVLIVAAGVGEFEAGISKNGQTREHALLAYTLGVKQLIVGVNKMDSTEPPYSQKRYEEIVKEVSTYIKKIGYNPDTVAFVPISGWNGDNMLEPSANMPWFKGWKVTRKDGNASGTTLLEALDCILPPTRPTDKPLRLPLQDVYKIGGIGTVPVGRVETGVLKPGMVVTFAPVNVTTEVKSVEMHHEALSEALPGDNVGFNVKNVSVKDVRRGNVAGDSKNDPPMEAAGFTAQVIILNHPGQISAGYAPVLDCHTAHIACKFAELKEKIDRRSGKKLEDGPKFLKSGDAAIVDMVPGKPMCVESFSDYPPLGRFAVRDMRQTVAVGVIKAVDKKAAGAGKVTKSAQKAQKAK

repression of translation of Luc-BAT in an IVT assay [%] | Substance
70 | hnRNP E1 KH1 domain expressed as GST-fusion product (domain or fragment)
> 80 | recombinant full-length (FL) hnRNP E1 expressed as a GST-fusion product (from UniProt Q15365 1-356) (natural protein)
